According to paper PMC7437997, “Mechanistic insights into Lhr helicase function in DNA repair”:

Target: Lhr (archaeal Lhr, Mth1802) (Methanothermobacter thermautotrophicus …, UniProt O27830 1-862)
Experiment: EMSA; no ATP; 100 nM Lhr, 10 nM DNA; EMSA: buffer HB (20 mM Tris-HCl pH 7.5, 2 mM DTT, 100 µg/ml BSA, 7% glycerol), room temperature, 10 nM DNA, 100 nM Lhr, +/- ATP and MgCl2, 5% acrylamide TBE gel; smFRET: 1 µM Lhr, RT or 45°C
Settings: protein: recombinant; tags: none stated (pET22b via NdeI/EcoRI, pEB352; no tag purification); label: ATTO 532 (green); partial fork 1:3 parental 24 bp, 3:4 leading arm 25 bp; S18[1-26] single-stranded; 1 nt 5' overhang on S20

Lhr (archaeal Lhr, Mth1802), sequence (O27830 whole entry): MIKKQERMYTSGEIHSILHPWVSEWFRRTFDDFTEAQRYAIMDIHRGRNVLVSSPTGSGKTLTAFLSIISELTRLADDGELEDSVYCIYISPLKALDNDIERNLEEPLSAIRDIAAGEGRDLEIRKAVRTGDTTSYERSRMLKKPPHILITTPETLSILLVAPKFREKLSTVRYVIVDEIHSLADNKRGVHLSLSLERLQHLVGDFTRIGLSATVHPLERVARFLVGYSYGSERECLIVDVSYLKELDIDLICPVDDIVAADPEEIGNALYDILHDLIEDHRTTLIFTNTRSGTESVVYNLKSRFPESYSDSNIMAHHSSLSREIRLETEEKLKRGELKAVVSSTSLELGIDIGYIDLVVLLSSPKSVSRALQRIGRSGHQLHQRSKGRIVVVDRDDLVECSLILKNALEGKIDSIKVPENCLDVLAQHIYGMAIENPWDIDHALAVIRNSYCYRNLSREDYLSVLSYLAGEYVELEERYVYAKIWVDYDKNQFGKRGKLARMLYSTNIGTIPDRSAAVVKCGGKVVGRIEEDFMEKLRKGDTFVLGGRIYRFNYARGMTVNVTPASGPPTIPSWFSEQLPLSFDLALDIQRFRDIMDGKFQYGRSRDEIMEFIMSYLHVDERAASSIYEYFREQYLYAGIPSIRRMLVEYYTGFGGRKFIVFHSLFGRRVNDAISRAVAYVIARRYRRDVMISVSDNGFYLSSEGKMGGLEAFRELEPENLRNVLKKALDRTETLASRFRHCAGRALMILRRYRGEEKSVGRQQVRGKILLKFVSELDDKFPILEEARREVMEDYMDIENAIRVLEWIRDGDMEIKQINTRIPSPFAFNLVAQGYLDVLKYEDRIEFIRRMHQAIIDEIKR

B1: partial fork-2 lacking the red lagging strand (dsDNA)
DNA 1: ATCGATAGTCTCTAGACAGTATGTCCTAGCAAGCCAGAATTCGGCAGCGT
DNA 2: GACGCTGCCGAATTCTGGCTTGCTATGTAAATCTTTGCCCACGTTGACCC
DNA 3: GGGTCAACGTGGGCAAAGATTTACA
modifications: 5' biotin on S18
B1: binds.
